Laboratory results: patent US11833164B2, “Methods of treating Fabry disease in patients having a mutation in the GLA gene” (Amicus Therapeutics, Inc., priority 2019, dated 2023)

Test system: mutant form of α-Gal A expressed in HEK-293 cells
Test: HEK assay (GLP HEK / Migalastat Amenability Assay): α-Gal A activity in lysates of transiently transfected HEK-293 cells incubated with or without 10 μM migalastat
Assay type: cell-based, human
Conditions: for Absolute increase (% WT): 10 μM migalastat versus baseline; for Relative increase: 10 μM migalastat α-Gal A activity relative to baseline; for 10 μM migalastat α-Gal A activity (% WT): 5 days; for 10 μM migalastat α-Gal A activity (% WT) / Baseline α-Gal A activity (% WT): percentage of baseline wild-type α-Gal A activity; for 10 μM migalastat α-Gal A activity (% WT) / Baseline α-Gal A activity (% WT) / Baseline α-Gal A activity / 10 μM migalastat α-Gal A activity: mean ± SEM; for Baseline α-Gal A activity (% WT): absence of migalastat; for Baseline α-Gal A activity / 10 μM migalastat α-Gal A activity: lysates of HEK-293 cells transfected with the mutant form; for Baseline α-Gal A activity: incubated 5 days in the absence of migalastat; for 10 μM migalastat α-Gal A activity: incubated 5 days with 10 μM migalastat
Experimental: Such mutations or variants are also referred to herein as “HEK assay amenable” mutations or variants.
The α-Gal A activity is expressed as the nmoles of free 4-MU released per milligram of protein per hour (nmol/mg/hr).
In Table 7, values for the mean±standard error of the mean (SEM) were calculated. nmol/mg/hr indicates “nmoles of free 4-MU released per mg of protein per hour”. WT indicates “wild-type”. NC indicates “not calculable”. N/A indicates “not applicable”.

Molecule | Absolute increase (% WT) | Relative increase | 10 μM migalastat α-Gal A activity (% WT) | Baseline α-Gal A activity (% WT) | Baseline α-Gal A activity [nmol/mg/h] | 10 μM migalastat α-Gal A activity [nmol/mg/h]
G104S (protein) MQLRNPELHLGCALALRFLALVSWDIPGARALDNGLARTPTMGWLHWERFMCNLDCQEEPDSCISEKLFMEMAELMVSEGWKDAGYEYLCIDDCWMAPQRDSESRLQADPQRFPHGIRQLANYVHSKGLKLGIYADVGNKTCAGFPGSFGYYDIDAQTFADWGVDLLKFDGCYCDSLENLADGYKHMSLALNRTGRSIVYSCEWPLYMWPFQKPNYTEIRQYCNHWRNFADIDDSWKSIKSILDWTSFNQERIVDVAGPGGWNDPDMLVIGNFGLSWNQQVTQMALWAIMAAPLFMSNDLRHISPQAKALLQDKDVIAINQDPLGKQGYQLRQGDNFEVWERPLSGLAWAVAMINRQEIGGPRSYTIAVASLGKGVACNPACFITQLLPVKRKLGFYEWTSRLRSHINPTGTVLLQLENTMQMSLKDLL | 52.0 | 3.9 | 69.8 ± 5.8 | 17.9 ± 1.8 | 5720 ± 464 | 22242 ± 1000
R105K (protein) MQLRNPELHLGCALALRFLALVSWDIPGARALDNGLARTPTMGWLHWERFMCNLDCQEEPDSCISEKLFMEMAELMVSEGWKDAGYEYLCIDDCWMAPQRDSEGKLQADPQRFPHGIRQLANYVHSKGLKLGIYADVGNKTCAGFPGSFGYYDIDAQTFADWGVDLLKFDGCYCDSLENLADGYKHMSLALNRTGRSIVYSCEWPLYMWPFQKPNYTEIRQYCNHWRNFADIDDSWKSIKSILDWTSFNQERIVDVAGPGGWNDPDMLVIGNFGLSWNQQVTQMALWAIMAAPLFMSNDLRHISPQAKALLQDKDVIAINQDPLGKQGYQLRQGDNFEVWERPLSGLAWAVAMINRQEIGGPRSYTIAVASLGKGVACNPACFITQLLPVKRKLGFYEWTSRLRSHINPTGTVLLQLENTMQMSLKDLL | 20.5 | 1.2 | 96.7 ± 5.2 | 76.2 ± 2.9 | 25495 ± 1793 | 31647 ± 2251
L106P (protein) MQLRNPELHLGCALALRFLALVSWDIPGARALDNGLARTPTMGWLHWERFMCNLDCQEEPDSCISEKLFMEMAELMVSEGWKDAGYEYLCIDDCWMAPQRDSEGRPQADPQRFPHGIRQLANYVHSKGLKLGIYADVGNKTCAGFPGSFGYYDIDAQTFADWGVDLLKFDGCYCDSLENLADGYKHMSLALNRTGRSIVYSCEWPLYMWPFQKPNYTEIRQYCNHWRNFADIDDSWKSIKSILDWTSFNQERIVDVAGPGGWNDPDMLVIGNFGLSWNQQVTQMALWAIMAAPLFMSNDLRHISPQAKALLQDKDVIAINQDPLGKQGYQLRQGDNFEVWERPLSGLAWAVAMINRQEIGGPRSYTIAVASLGKGVACNPACFITQLLPVKRKLGFYEWTSRLRSHINPTGTVLLQLENTMQMSLKDLL | 25.8 | 1.8 | 56.5 ± 3.9 | 30.7 ± 2.7 | 8835 ± 878 | 16075 ± 1039
L106H (protein) MQLRNPELHLGCALALRFLALVSWDIPGARALDNGLARTPTMGWLHWERFMCNLDCQEEPDSCISEKLFMEMAELMVSEGWKDAGYEYLCIDDCWMAPQRDSEGRHQADPQRFPHGIRQLANYVHSKGLKLGIYADVGNKTCAGFPGSFGYYDIDAQTFADWGVDLLKFDGCYCDSLENLADGYKHMSLALNRTGRSIVYSCEWPLYMWPFQKPNYTEIRQYCNHWRNFADIDDSWKSIKSILDWTSFNQERIVDVAGPGGWNDPDMLVIGNFGLSWNQQVTQMALWAIMAAPLFMSNDLRHISPQAKALLQDKDVIAINQDPLGKQGYQLRQGDNFEVWERPLSGLAWAVAMINRQEIGGPRSYTIAVASLGKGVACNPACFITQLLPVKRKLGFYEWTSRLRSHINPTGTVLLQLENTMQMSLKDLL | 7.3 | 3.5 | 10.2 ± 1.1 | 3 ± 0.2 | 856 ± 58 | 3009 ± 399
R105I (protein) MQLRNPELHLGCALALRFLALVSWDIPGARALDNGLARTPTMGWLHWERFMCNLDCQEEPDSCISEKLFMEMAELMVSEGWKDAGYEYLCIDDCWMAPQRDSEGILQADPQRFPHGIRQLANYVHSKGLKLGIYADVGNKTCAGFPGSFGYYDIDAQTFADWGVDLLKFDGCYCDSLENLADGYKHMSLALNRTGRSIVYSCEWPLYMWPFQKPNYTEIRQYCNHWRNFADIDDSWKSIKSILDWTSFNQERIVDVAGPGGWNDPDMLVIGNFGLSWNQQVTQMALWAIMAAPLFMSNDLRHISPQAKALLQDKDVIAINQDPLGKQGYQLRQGDNFEVWERPLSGLAWAVAMINRQEIGGPRSYTIAVASLGKGVACNPACFITQLLPVKRKLGFYEWTSRLRSHINPTGTVLLQLENTMQMSLKDLL | 8.2 | 1.3 | 41.6 ± 3.1 | 33.4 ± 2.2 | 9696 ± 798 | 12128 ± 1157
L106I (protein) MQLRNPELHLGCALALRFLALVSWDIPGARALDNGLARTPTMGWLHWERFMCNLDCQEEPDSCISEKLFMEMAELMVSEGWKDAGYEYLCIDDCWMAPQRDSEGRIQADPQRFPHGIRQLANYVHSKGLKLGIYADVGNKTCAGFPGSFGYYDIDAQTFADWGVDLLKFDGCYCDSLENLADGYKHMSLALNRTGRSIVYSCEWPLYMWPFQKPNYTEIRQYCNHWRNFADIDDSWKSIKSILDWTSFNQERIVDVAGPGGWNDPDMLVIGNFGLSWNQQVTQMALWAIMAAPLFMSNDLRHISPQAKALLQDKDVIAINQDPLGKQGYQLRQGDNFEVWERPLSGLAWAVAMINRQEIGGPRSYTIAVASLGKGVACNPACFITQLLPVKRKLGFYEWTSRLRSHINPTGTVLLQLENTMQMSLKDLL | 23.6 | 1.5 | 70 ± 4.7 | 46.4 ± 2.7 | 13485 ± 1014 | 20120 ± 1416
R105T (protein) MQLRNPELHLGCALALRFLALVSWDIPGARALDNGLARTPTMGWLHWERFMCNLDCQEEPDSCISEKLFMEMAELMVSEGWKDAGYEYLCIDDCWMAPQRDSEGTLQADPQRFPHGIRQLANYVHSKGLKLGIYADVGNKTCAGFPGSFGYYDIDAQTFADWGVDLLKFDGCYCDSLENLADGYKHMSLALNRTGRSIVYSCEWPLYMWPFQKPNYTEIRQYCNHWRNFADIDDSWKSIKSILDWTSFNQERIVDVAGPGGWNDPDMLVIGNFGLSWNQQVTQMALWAIMAAPLFMSNDLRHISPQAKALLQDKDVIAINQDPLGKQGYQLRQGDNFEVWERPLSGLAWAVAMINRQEIGGPRSYTIAVASLGKGVACNPACFITQLLPVKRKLGFYEWTSRLRSHINPTGTVLLQLENTMQMSLKDLL | 15.6 | 1.4 | 59.6 ± 3.9 | 44 ± 2.2 | 12553 ± 603 | 17062 ± 1134
R105G (protein) MQLRNPELHLGCALALRFLALVSWDIPGARALDNGLARTPTMGWLHWERFMCNLDCQEEPDSCISEKLFMEMAELMVSEGWKDAGYEYLCIDDCWMAPQRDSEGGLQADPQRFPHGIRQLANYVHSKGLKLGIYADVGNKTCAGFPGSFGYYDIDAQTFADWGVDLLKFDGCYCDSLENLADGYKHMSLALNRTGRSIVYSCEWPLYMWPFQKPNYTEIRQYCNHWRNFADIDDSWKSIKSILDWTSFNQERIVDVAGPGGWNDPDMLVIGNFGLSWNQQVTQMALWAIMAAPLFMSNDLRHISPQAKALLQDKDVIAINQDPLGKQGYQLRQGDNFEVWERPLSGLAWAVAMINRQEIGGPRSYTIAVASLGKGVACNPACFITQLLPVKRKLGFYEWTSRLRSHINPTGTVLLQLENTMQMSLKDLL | 15.3 | 1.4 | 53.3 ± 3.5 | 38 ± 2.1 | 16513 ± 681 | 22993 ± 1042
